# Reference: patent US20170342119A1
# Biological target: IL-15 βγ receptors on 32Dβ cells (UniProt P14784)
# Experiment: cell-based or functional assay
# Sequence of UniProt P14784 (P14784 27-551, chain 1 of 2): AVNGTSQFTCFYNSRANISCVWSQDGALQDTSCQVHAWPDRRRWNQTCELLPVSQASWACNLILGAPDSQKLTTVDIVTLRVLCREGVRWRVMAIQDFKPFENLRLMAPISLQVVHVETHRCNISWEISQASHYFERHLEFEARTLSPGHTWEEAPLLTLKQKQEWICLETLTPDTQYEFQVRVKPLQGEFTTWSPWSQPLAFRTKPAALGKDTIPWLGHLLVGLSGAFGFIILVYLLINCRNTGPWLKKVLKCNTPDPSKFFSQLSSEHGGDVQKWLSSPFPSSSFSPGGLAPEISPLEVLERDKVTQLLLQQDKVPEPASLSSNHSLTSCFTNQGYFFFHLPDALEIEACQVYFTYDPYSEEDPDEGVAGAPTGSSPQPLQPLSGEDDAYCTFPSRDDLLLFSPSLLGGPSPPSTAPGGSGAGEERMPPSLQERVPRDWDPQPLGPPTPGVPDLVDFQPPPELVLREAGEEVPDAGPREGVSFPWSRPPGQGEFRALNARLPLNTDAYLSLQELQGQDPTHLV
# Sequence of UniProt P14784 (P34902 23-369, chain 2 of 2, further chain): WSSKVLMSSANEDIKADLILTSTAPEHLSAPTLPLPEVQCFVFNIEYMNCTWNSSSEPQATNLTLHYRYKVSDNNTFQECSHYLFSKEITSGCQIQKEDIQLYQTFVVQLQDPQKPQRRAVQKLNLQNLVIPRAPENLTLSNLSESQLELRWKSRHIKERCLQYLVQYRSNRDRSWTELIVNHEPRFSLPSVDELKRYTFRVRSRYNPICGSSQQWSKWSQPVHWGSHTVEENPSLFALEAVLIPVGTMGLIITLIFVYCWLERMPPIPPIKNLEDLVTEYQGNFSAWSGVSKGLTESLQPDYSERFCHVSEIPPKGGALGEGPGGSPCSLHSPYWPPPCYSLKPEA
substance,measurement,value
IL-15 (from UniProt P40933 49-162) (ligand),"32Dβ cell proliferation (WST-1), EC50",0.034 nM
